Results as given in US20240325562A1 (published 2024).
Substitutions are numbered along the chain they refer to.

T1: recombinant hPDGFRB ectodomain (human, UniProt P09619 33-532)
T1 chain: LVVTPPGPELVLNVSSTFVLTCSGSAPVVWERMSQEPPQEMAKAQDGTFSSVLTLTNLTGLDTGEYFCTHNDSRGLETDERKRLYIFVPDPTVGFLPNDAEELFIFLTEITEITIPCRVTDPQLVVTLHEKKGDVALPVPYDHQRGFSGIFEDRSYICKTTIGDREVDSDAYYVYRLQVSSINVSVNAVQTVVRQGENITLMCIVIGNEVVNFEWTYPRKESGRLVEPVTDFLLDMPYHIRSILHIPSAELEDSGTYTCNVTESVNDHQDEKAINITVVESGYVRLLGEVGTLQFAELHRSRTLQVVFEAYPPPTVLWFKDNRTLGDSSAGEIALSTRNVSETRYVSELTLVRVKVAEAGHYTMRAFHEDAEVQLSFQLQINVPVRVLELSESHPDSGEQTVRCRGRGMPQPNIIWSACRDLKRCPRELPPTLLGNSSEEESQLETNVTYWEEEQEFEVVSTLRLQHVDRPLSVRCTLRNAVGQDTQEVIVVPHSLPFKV

T2: recombinant rPDGFRB ectodomain (rat, UniProt Q05030 32-531)
T2 chain: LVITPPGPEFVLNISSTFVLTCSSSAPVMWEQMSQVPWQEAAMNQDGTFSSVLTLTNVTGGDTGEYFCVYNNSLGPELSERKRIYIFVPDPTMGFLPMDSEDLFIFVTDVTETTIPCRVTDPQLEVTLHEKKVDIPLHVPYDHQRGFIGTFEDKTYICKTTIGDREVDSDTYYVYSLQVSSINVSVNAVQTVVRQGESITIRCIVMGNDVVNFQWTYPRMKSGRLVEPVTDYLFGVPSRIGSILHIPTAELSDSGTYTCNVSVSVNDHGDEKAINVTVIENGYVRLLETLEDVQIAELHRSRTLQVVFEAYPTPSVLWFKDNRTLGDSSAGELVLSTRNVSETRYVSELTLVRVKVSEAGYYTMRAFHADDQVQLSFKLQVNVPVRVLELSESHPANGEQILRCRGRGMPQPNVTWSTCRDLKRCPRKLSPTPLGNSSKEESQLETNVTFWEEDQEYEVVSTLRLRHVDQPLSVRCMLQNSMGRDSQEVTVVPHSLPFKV

T3: full-length rat PDGFRB on cells (rat, UniProt Q05030 32-1097)
T3 chain: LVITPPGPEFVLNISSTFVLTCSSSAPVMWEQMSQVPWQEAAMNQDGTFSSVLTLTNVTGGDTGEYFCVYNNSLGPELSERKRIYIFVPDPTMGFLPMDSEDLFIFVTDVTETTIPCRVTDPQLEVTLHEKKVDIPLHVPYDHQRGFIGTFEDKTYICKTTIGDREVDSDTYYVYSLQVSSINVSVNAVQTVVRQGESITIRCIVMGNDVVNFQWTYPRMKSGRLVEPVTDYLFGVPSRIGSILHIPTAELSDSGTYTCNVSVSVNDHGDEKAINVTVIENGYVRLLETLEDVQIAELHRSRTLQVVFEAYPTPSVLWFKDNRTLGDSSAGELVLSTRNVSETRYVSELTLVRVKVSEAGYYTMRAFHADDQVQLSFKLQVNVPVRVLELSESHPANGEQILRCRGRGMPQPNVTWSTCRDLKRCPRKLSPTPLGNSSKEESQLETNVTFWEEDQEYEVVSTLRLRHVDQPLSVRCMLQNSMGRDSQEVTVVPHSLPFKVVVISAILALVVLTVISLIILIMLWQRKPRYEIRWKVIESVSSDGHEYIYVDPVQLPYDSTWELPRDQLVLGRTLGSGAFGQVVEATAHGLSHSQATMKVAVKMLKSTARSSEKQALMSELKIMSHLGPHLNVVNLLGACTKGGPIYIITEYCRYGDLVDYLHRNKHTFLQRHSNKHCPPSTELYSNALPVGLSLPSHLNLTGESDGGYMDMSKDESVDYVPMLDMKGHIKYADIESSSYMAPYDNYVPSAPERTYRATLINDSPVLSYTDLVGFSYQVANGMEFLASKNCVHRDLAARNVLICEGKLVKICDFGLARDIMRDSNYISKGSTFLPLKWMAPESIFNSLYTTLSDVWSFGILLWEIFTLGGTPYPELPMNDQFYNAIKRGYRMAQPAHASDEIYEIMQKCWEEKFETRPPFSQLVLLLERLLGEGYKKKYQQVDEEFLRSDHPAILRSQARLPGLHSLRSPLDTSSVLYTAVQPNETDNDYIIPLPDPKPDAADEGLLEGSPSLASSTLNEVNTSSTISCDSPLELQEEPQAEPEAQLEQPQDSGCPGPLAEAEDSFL

B1: SP20P (VHH)
VHH: EVQLVESGGGLVQAGGSLRLSCVISGRTSPTYPMGWFRQSPGNEREFVASINWSGGWRNYADSVKDRFTISRDDAKNTVYLQMNSLKPEDTAVYYCARGQYSSGTPVYAHEYAYWGQGTQVTVSS
B2: SP13P (VHH)
VHH: EVQLVESGGGLVQPGGSLRLSCAASESIFSINYMAWYRQAPGKQRELVAFSIDGSSTNYVDSVRGRFTASRDNAENTLYLQMNSLKPEDTAVYYCYAQGNTWAAGVWGQGTQVTVSS
B3: SP05P (VHH)
VHH: EVQLVESGGGLVQAGGSLRLSCAASGRTSFSGYAMAWFRQAPGKERDFVASITWSYGYTYYTDSAQGRFTISRDSAKNTVYLEMNSLKPEDTAVYYCAADPKASRFRILREYAYWGQGTQVTVSS
B4: SP02P (VHH)
VHH: EVQLVESGGGLVQAGGSLRLSCAASESISSIEQMGWFRQAPGKQRALVAINTYGGRTVYTNSVEGRFTMSRDSAKNMVYLQMTSLEPEDTAVYYCYAQTTAWRGGVWGQGTQVTVSS
B5: SP01P (VHH)
VHH: EVQLVESGGGLAQAGGSLRLSCVASGNIDSANGMAWYRQAPGKQRELVAHITSGTSYYVASVEGRFTISRANAKDTWYLQMNSLKPEDTGVYYCFPIGLSAHWSQGTQVTVSS
B6: SP14P (VHH)
VHH: EVQLVESGGGLVQAGDSLRLSCVVSGLTFSRYGMGWFRQATGKEREFVGGISVGSSGTMYPNSVKGRFTISRDNAKSTVYLQMNSLKPEDTAVYFCAAIDQGSFVQQRDYRYWGQGTQVTVSS
B7: SP28P (VHH)
VHH: EVQLVESGGGLVQAGGSLRLSCAASGSIVSFNGINWYRQAPGKQREWVGGITQGGNTMYADSVRGRFTISRDNTKNTMYLQMNSLKPEDTAVYYCRRPPVASWGQGTQVTVSS
B8: SP31P (VHH)
VHH: EVQLVESGGGLVQAGGSLRLSCAASRGTFGTYIMGWFRQAPGKEREFVAAISWRGANTYYGYSVKGRFTISRDNAKNTMYLQMADLKPEDTADYYCGVHLNGTPYYYASGYRYWGQGTQVTVSS
B9: SP30P (VHH)
VHH: B8 VHH with Y32D
B10: SP36P (VHH)
VHH: EVQLVESGGGLVQAGGSLRLSCTPSITTAGTTIMAWFRQAPGNEREFVAAIWGSKTAYGDSMKGRLTISRDNVRDNGQKTVFLQMNNLQLQDTATYYCAASSGGYVHSSTSYEIWGRGTQVTVSS
B11: SP27P (VHH)
VHH: EVQLVESGGGLVQIGDSLRLSCAASGGTFNRYGMGWFRQAPGKEREFVAAIRWDGVDTNYADFVKGRFTISRYNAKNTAYLQMNSLKPEDTAVYYCAADRRGLYTKHAHRYDYWGQGTQVTVSS
B12: SP26P (VHH)
VHH: EVQLVESGGGLVQAGGSLRLSCAASGRSFSSSVMGWFRQTPGKEREFVAATRWTAASTHYADSVKGRFTISRDHAENAVFLQMNSLKPEDTAVYYCAAGNYLDTAQYRYNYWGQGTQVTVSS
modifications: In the competition assay the reporter copy carried IRDye800 on the C-terminal cysteine, which is not in the letters.

Molecular target: T1, recombinant hPDGFRB ectodomain
Experiment: binding to immobilized ectodomain

Binder	Kd [nM]
B1	3.8
B2	9.3
B3	9.2
B4	6.2
B5	20.4
B6	8.6

Molecular target: T2, recombinant rPDGFRB ectodomain
Experiment: binding to immobilized ectodomain

Binder	Kd [nM]
B7	6
B8	276
B9	12.2
B10	31
B11	25.5

Molecular target: full-length human PDGFRB on cells (human, UniProt P09619 33-1106)
Experiment: cell binding; SCC-hPDGFRβ cells

Binder	Kd [nM]
B2	10.4
B5	7.8

Molecular target: T3, full-length rat PDGFRB on cells
Experiment: cell binding; SCC-rPDGFRβ cells

Binder	Kd [nM]
B7	0.5
B12	0.3
B8	31.8
B10	76.6
